Assay results from US20240059769A1 (BIOLOJIC DESIGN, published 2024).
Like-named read-outs stand apart in the source and are kept apart here.

What was measured:
[1] = molecular target: T1, hTSLP-His (human, UniProt Q969D9 29-159, limits assumed); experiment: cell-based or functional assay
[2] = molecular target: T2, cynomolgus monkey (cyno) TSLP (cynomolgus monkey, UniProt A0A7N9CAT7 29-159); experiment: SPR
T2 construct: also called cTSLP; cynomolgus TSLP

[3] = molecular target: T3, human TSLP (human, UniProt Q969D9 29-159); experiment: cell-based or functional assay
[4] = molecular target: T4, recombinant human IL-13 (human, UniProt P35225 35-146); experiment: cell-based or functional assay
T4 sequence (P35225 35-146 limits assumed): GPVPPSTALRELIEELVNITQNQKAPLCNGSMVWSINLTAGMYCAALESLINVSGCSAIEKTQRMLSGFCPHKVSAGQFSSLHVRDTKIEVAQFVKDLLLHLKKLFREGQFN

[5] = molecular target: T3, human TSLP; experiment: SPR
[6] = molecular target: T4, recombinant human IL-13; experiment: SPR
[7] = molecular target: T4, recombinant human IL-13; experiment: cell-based or functional assay; remark: listed apart in the source
[8] = molecular target: T3, human TSLP; experiment: SPR (Biacore T200), antibody captured, cytokine analyte 30-0.153 nM
Procedure: CMS chip was coated with human antibody capture kit to obtain 3000-5000 RU and the antibody, served as the capture, was injected at a flow rate of 10 ul/ml to obtain 250-350 RU.

[9] = molecular target: T5, recombinant cynomolgus monkey IL-13 (cynomolgus monkey, UniProt Q0PW92 21-132); experiment: SPR
T5 construct: bought; also called rc-IL-13; cIL-13
T5 sequence (Q0PW92 entry or part of it): as the sequence (P35225 35-146 limits assumed) above, with G1S, R10K, M42V, S67N, H83R, L100V counted along it

[10] = molecular target: T4, recombinant human IL-13; experiment: SPR, steady state, antibody captured, hIL-13 analyte
Procedure: Subsequent to a cycle, the analyte and tested antibody were stripped from the chip and new tested Ab was loaded on the chip as described above. KD was determined at a steady state condition.

[11] = molecular target: T3, human TSLP; experiment: SPR (ProteOn XPR36), antibody captured, hTSLP analyte 3.2-0.2 nM
[12] = molecular target: T4, recombinant human IL-13; experiment: SPR (Biacore T200), antibody captured, hIL-13 analyte 20-0.6 nM
Procedure: Recombinant cyno IL-13 (rc-IL-13) was tested at 200 nM with a 2-fold dilution (FIGS. 5C-5D).

[13] = molecular target: T4, recombinant human IL-13; experiment: SPR; remark: listed apart in the source
[14] = molecular target: T2, cynomolgus monkey (cyno) TSLP; experiment: ELISA, ligand coated, IgG 1-1000 nM
[15] = molecular target: T3, human TSLP; experiment: ELISA, ligand coated, IgG 1-1000 nM
[16] = molecular target: T5, recombinant cynomolgus monkey IL-13; experiment: ELISA, ligand coated, IgG 1-1000 nM
[17] = molecular target: IL-2 (Homo sapiens (Human), UniProt P60568 21-153); experiment: ELISA, 250 ng coated ligand per well, 100 nM IgG, anti-human Fc-HRP
IL-2, sequence (P60568 21-153 limits assumed): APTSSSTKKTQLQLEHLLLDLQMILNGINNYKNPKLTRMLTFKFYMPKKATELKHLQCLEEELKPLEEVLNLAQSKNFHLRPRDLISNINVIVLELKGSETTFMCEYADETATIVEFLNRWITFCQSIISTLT

[18] = molecular target: T6, IL-4 (Homo sapiens (Human), UniProt P05112 25-153); experiment: as above
T6 sequence: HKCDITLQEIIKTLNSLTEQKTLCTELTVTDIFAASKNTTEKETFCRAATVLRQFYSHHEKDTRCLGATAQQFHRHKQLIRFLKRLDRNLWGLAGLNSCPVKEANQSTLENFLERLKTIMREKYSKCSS

[19] = molecular target: BSA (UniProt P02769 25-607); experiment: as above
BSA, sequence (P02769 25-607 limits assumed): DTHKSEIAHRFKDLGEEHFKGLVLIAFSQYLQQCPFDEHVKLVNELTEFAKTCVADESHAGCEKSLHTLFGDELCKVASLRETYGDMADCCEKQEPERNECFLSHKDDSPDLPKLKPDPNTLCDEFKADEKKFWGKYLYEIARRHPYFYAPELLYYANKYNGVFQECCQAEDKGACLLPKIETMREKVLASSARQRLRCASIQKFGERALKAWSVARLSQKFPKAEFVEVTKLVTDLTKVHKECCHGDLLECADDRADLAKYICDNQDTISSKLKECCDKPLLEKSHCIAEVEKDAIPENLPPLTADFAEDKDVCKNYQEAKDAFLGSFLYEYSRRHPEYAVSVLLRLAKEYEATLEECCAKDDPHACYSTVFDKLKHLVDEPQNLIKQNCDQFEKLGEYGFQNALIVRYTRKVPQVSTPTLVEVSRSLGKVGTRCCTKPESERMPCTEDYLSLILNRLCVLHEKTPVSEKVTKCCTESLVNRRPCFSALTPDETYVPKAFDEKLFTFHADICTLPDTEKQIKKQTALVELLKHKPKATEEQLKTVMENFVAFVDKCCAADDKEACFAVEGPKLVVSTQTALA

[20] = molecular target: T4, recombinant human IL-13; experiment: cell-based or functional assay; remark: listed apart in the source
[21] = molecular target: T1, hTSLP-His; experiment: cell-based or functional assay; remark: listed apart in the source
[22] = molecular target: T3, human TSLP; experiment: SPR; remark: listed apart in the source
[23] = molecular target: T1, hTSLP-His; experiment: competition ELISA, TSLP-R-Fc coated, 3 nM hTSLP-His pre-mixed with IgG
Source text: Wells were then washed three times with TBS 0.05% tween (TBS-T) and blocked with TBS-T containing 2% BSA (w/v).

[24] = molecular target: T3, human TSLP; experiment: SPR; remark: listed apart in the source
[25] = molecular target: T4, recombinant human IL-13; experiment: SPR; remark: listed apart in the source
[26] = molecular target: T7, hIL-13-His (human, UniProt P35225 35-146); experiment: SPR (Biacore), antibody captured on anti-human Fc chip, hIL-13 as analyte, multi-cycle, 1:1 binding model
T7 construct: bought; also called human IL-13 (Acro Biosystems IL3-H52H4); not shown: His tag
T7 sequence (P35225 35-146 limits assumed): as the sequence (P35225 35-146 limits assumed) above

[27] = molecular target: T3, human TSLP; experiment: SPR (Biacore), antibody captured on anti-human Fc chip, hTSLP as analyte, multi-cycle, 1:1 binding model
[28] = molecular target: T3, human TSLP; experiment: as above; remark: listed apart in the source
[29] = molecular target: T7, hIL-13-His; experiment: SPR (Biacore), antibody captured on anti-human Fc chip, hIL-13 as analyte, multi-cycle, 1:1 binding model; remark: listed apart in the source
T7 sequence (P35225 35-146 limits assumed): as above

[30] = molecular target: T7, hIL-13-His; experiment: cell-based or functional assay
[31] = molecular target: T1, hTSLP-His; experiment: competition ELISA, TSLP-R coated, soluble TSLP-R as competitor for hTSLP

T2 sequence (A0A7N9CAT7 entry or part of it): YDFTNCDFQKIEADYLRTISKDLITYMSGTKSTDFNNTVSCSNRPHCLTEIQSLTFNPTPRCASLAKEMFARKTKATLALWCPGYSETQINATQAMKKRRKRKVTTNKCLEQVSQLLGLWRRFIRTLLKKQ

B1: BDG38.094 (antibody, V domains shown)
VH: QMQLVESGGGVVQPGRSLRLSCAASGFAFRTYGMHWVRQAPGKGLEWVAVIWDDGSNTHYADSVKGRFTITRDNSKNTLNLQMNSLRAEDTAVYYCVRAPQWYLTAEAFDLWGQGTMVTVSS
VL: SYVLTQPPSVSVAPGETASITCGGNLIGAYLVHWYQQKPGQAPLLVIYDDVDRPARIPERFSGSNSGNTATLTISRVEAGDEADYYCQVWDHNSNHMVFGGGTKLTVL
notes: IgG1
[1]
  IC50 [pM], STAT5 phosphorylation inhibition in MUTZ5 cells: 27.2 pM
[2]
  Kd: 2.75 pM
  koff: 3.18e-05 s⁻¹
  kon: 1.16e+07 M⁻¹ s⁻¹
[3]
  IC50 TARC: 356 pM
[4]
  IC50 CD23: 172 pM
[5]
  Kd: 0.0127 pM
  koff: 1.82e-07 s⁻¹
  kon: 1.44e+07 M⁻¹ s⁻¹
[6]
  Kd: 13.8 pM
  koff: 9.36e-05 s⁻¹
  kon: 6.77e+06 M⁻¹ s⁻¹
[7]
  HEK-IL-13 [nM] (IC50, STAT6 reporter): 0.0487 nM
[8]
  Kd: < 1 pM
[9]
  Kd: 270 pM
  koff: 0.006 s⁻¹
  kon: 2.22e+07 M⁻¹ s⁻¹

B2: BDG33.004 (antibody, V domains shown)
VH: QMQLVESGGGVVQPGRSLRLSCAASGFTFRTYGMHWVRQAPGKGLEWVAVIWYDGSNKHYADSVKGRFTITRDNSKNTLNLQMNSLRAEDTAVYYCARAPQWMLVAEAFDLWGQGTMVTVSS
VL: SYVLTQPPSVSVAPGQTARITCGGNLIGSKLVHWYQQKPGQAPVLVVYDDSDRPSRIPERFSGSNSGNTATLTISRVEAGDEADYYCQVWDSSSDHVVFGGGTKLTVL
notes: human IgG1, lambda light chain; also called BGD33.004; Clone C6 (as IgG1)
[10]
  Kd: 57400 pM
[11]
  Kd: 3330 pM
  koff: 0.00114 s⁻¹
  kon: 344000 M⁻¹ s⁻¹

B3: BDG33.023 (antibody, V domains shown)
VH: QMQLVESGGGVVQPGRSLRLSCAASGFAFRTYGMHWVRQAPGKGLEWVAVIWYDGSNTHYADSVKGRFTITRDNSKNTLNLQMNSLRAEDTAVYYCARAPQWYLSAEAFDLWGQGTMVTVSS
VL: SYVLTQPPSVSVAPGQTARITCGGNLIGSKLVHWYQQKPGQAPVLVVYDDSDRPSRIPERFSGSNSGNTATLTISRVEAGDEADYYCQVWDHSSDHVVFGGGTKLTVL
notes: standard IgG; also called BGD33.023; BDG33.0023
[12]
  Kd: 3650 pM
  koff: 0.0157 s⁻¹
  kon: 4.31e+06 M⁻¹ s⁻¹
[13]
  Kd: 3010 pM
  koff: 0.00457 s⁻¹
  kon: 1.52e+06 M⁻¹ s⁻¹
[14]
  EC50: 8200 pM
[15]
  EC50: 2500 pM
[16]
  EC50: 7100 pM
[17]
  binding result: no binding (tested: 100 nM)
[18]
  binding result: no binding (tested: 100 nM)
[19]
  binding result: no binding (tested: 100 nM)
[20]
  IC50, HEK-Blue IL-4/IL-13 reporter (0.4 nM rh-IL-13): 1300 pM
[21]
  IC50, TSLP dependent pSTAT5 activation in MUTZ5 cells (14 pM TSLP): 13 pM
[22]
  Kd: 62.5 pM
  koff: 6.84e-05 s⁻¹
  kon: 1.09e+06 M⁻¹ s⁻¹
[23]
  IC50: 410 pM

B4: BDG33.003 (antibody, V domains shown)
VH: QMQLVESGGGVVQPGRSLRLSCAASGFTFRTYGMHWVRQAPGKGLEWVAVIWYDGSNKHYADSVKGRFTITRDNSKNTLNLQMNSLRAEDTAVYYCARAPQWELTAEAFDIWGQGTMVTVSS
VL: SYVLTQPPSVSVAPGQTARITCGGNLIGSKLVHWYQQKPGQAPVLVVYDDSDRPSLIPERFSGSNSGNTATLTISRVEAGDEADYYCQVWDSSSDGVVFGGGTKLTVL
notes: also called BGD33.003; Clone C2 (as IgG1)
[10]
  Kd: 21600 pM
[11]
  Kd: 4500 pM
  koff: 0.00129 s⁻¹
  kon: 287000 M⁻¹ s⁻¹

B5: BDG38.138 (antibody, human IgG1, lambda, L234A L235A)
heavy: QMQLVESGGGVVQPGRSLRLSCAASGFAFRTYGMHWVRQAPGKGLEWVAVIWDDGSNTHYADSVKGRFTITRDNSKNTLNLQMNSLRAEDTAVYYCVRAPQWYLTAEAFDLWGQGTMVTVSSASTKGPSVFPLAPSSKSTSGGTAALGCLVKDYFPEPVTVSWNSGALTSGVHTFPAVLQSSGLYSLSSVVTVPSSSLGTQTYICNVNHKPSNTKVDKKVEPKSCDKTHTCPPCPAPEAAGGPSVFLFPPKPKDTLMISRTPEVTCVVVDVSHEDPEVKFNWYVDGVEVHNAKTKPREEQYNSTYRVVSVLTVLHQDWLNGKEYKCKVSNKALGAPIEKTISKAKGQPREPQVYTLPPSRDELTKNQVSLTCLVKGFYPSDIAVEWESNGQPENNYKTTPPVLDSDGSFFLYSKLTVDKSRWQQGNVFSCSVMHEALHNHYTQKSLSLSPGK
light: SYVLTQPPSVSVAPGETASITCGGNMIGGYLVHWYQQKPGQAPVLVIYDDVDRPSRIPERFSGSNSGNTATLTISRVEAGDEADYYCQVWDHNSNHMVFGGGTKLTVLGQPKAAPSVTLFPPSSEELQANKATLVCLISDFYPGAVTVAWKADSSPVKAGVETTTPSKQSNNKYAASSYLSLTPEQWKSHRSYSCQVTHEGSTVEKTVAPTECS
notes: human IgG1 L234A/L235A/P329G (LALAPG); also called hIgG1 LALAPG; hIgG1 LALA-PG
[24]
  Kd: 2.85 pM
  koff: 4.28e-05 s⁻¹
  kon: 1.5e+07 M⁻¹ s⁻¹
[25]
  Kd: 13.4 pM
  koff: 0.00016 s⁻¹
  kon: 1.19e+07 M⁻¹ s⁻¹
[1]
  IC50 [pM], STAT5 phosphorylation inhibition in MUTZ5 cells: 45.2 pM
[26]
  Kd: 52.3 pM
  koff: 0.000455 s⁻¹
  kon: 8.7e+06 M⁻¹ s⁻¹
[2]
  Kd: 1.35 pM
  koff: 1.85e-05 s⁻¹
  kon: 1.37e+07 M⁻¹ s⁻¹
[3]
  IC50 TARC: 2360 pM
[4]
  IC50 CD23: 164 pM
[7]
  HEK-IL-13 [nM] (IC50, STAT6 reporter): 0.0286 nM
[27]
  Kd: 6.61 pM
  koff: 0.000212 s⁻¹
  kon: 3.2e+07 M⁻¹ s⁻¹
[9]
  Kd: 849 pM
  koff: 0.00653 s⁻¹
  kon: 7.7e+06 M⁻¹ s⁻¹

B6: BDG38.145 (antibody, human IgG1, lambda, L234A L235A)
heavy: not shown
light: SYVLTQPPSVSVAPGETASITCGGNMIGGYLVHWYQQKPGQAPVLVIYDDVDRPSRIPERFSGSNSGNTATLTISRVEAGDEADYYCQVWDHNSNHMVFGGGTKLTVLGQPKAAPSVTLFPPSSEELQANKATLVCLISDFYPGAVTVAWKADSSPVKAGVETTTPSKQSNNKYAASSYLSLTPEQWKSHRSYSCQVTHEGSTVEKTVAPTECS
notes: human IgG1 L234A/L235A (LALA); same VH/VL as BDG38.138; also called BSG38.145; hIgG1 LALA
[28]
  Kd: 7.79 pM
  koff: 0.0002 s⁻¹
  kon: 2.57e+07 M⁻¹ s⁻¹
[29]
  Kd: 87.9 pM
  koff: 0.000323 s⁻¹
  kon: 3.67e+06 M⁻¹ s⁻¹
[30]
  IC50, CD23 expression on monocytes (hPBMC, 0.7 nM IL-13): 380 pM

B7: TSLP-R-Fc tag (Fc fusion, UniProt Q9HC73 23-231, looked up)
chain: QGGAAEGVQIQIIYFNLETVQVTWNASKYSRTNLTFHYRFNGDEAYDQCTNYLLQEGHTSGCLLDAEQRDDILYFSIRNGTHPVFTASRWMVYYLKPSSPKHVRFSWHQDAVTVTCSDLSYGDLLYEVQYRSPFDTEWQSKQENTCNVTIEGLDAEKCYSFWVRVKAMEDVYGPDTYPSDWSEVTCWQRGEIRDACAETPTPPKPKLSK
notes: bought; also called TSLP receptor; not shown: Fc tag
[31]
  IC50: 3000 pM
